According to US20240117038A1 (Ablynx, published 2024):

T1: human CX3CR1 (human, UniProt P49238 1-355)
T1 sequence: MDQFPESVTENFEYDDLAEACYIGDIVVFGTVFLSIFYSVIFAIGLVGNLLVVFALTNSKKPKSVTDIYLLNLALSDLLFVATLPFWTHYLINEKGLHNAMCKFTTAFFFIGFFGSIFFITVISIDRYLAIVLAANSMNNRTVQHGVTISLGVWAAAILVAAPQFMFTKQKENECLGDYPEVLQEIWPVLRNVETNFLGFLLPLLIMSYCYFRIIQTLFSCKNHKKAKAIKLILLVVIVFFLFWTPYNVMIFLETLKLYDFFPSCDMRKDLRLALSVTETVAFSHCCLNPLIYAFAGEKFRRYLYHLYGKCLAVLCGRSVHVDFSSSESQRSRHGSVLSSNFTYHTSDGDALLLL

T2: cynomolgus CX3CR1 (cynomolgus monkey (Macaca fascicularis), UniProt P49238 1-355 (human entry))
T2 construct: Overexpressed on CHO K1 cells; also called cyno CX3CR1; cyCX3CR1
T2 chain: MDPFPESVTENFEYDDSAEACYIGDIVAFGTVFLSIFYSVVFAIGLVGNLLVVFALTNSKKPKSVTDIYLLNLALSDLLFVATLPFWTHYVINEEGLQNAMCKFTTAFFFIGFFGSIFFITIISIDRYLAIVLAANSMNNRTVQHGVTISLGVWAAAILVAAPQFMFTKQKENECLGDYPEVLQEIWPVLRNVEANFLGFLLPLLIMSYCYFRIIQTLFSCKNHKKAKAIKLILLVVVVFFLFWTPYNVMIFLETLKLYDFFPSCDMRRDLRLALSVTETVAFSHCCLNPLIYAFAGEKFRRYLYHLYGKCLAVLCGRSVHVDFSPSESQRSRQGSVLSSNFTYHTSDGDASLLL


Key:
[1] = molecular target: T1, human CX3CR1; assay: cell-based or functional assay
[2] = molecular target: T2, cynomolgus CX3CR1; assay: flow cytometry on CHO K1 cells; tied to A041600085 by Table B-4 (5.6E-10 against 1.7E-10)
Description: CHO cells overexpressing human or cynomolgus CX3CR1 were generated using techniques known in the art. Cells were harvested and resuspended in assay buffer (PBS, 2% FBS, 0.05% NaN3) and seeded separately in 384-well Bio-One V-bottom plates (Greiner, Cat. No. 781280), with a total of 2E04 cells seeded per well. After washing, serial dilutions of multivalent ISVD construct (starting from 250 nM, 3-fold dilution, 11 points, diluted in assay buffer), were added and incubated for 4 hours at 4° C. Binding was performed in the presence of 30 uM HSA (Sigma-Aldrich, Cat. No. A8763). Plates were then washed 3 times and cells were incubated with an anti-VHH mouse antibody (3300-fold diluted in assay buffer) for 30 minutes at 4′° C. […] Plates were finally washed 3 times and cells were resuspended in PI (Miltenyi Biotec, Cat. No. 130-093-233, 1000-fold diluted in assay buffer). Cell suspensions were analyzed with iQue Screener PLUS (Intellicyt). EC50s were estimated by dose response modelling. Curves were fit using 4 parameter logistic regression in GraphPad (GraphPad Software Inc.). A purified anti-human CX3CR1 antibody [K0124E1] (BioLegend, Cat. No. 355701/355702) was used as positive control to detect CX3CR1 expression on the cell surface.

fold inhibition of monocyte migration (A041600035 VS IRR VHH), healthy, CD16+ monocytes [1] [fold] | fold inhibition of monocyte migration (A041600035 VS IRR VHH), healthy, CD16- monocytes [1] [fold] | fold inhibition of monocyte migration (A041600035 VS IRR VHH), healthy, total monocytes [1] [fold] | fold inhibition of monocyte migration (A041600035 VS IRR VHH), lupus nephritis, CD16+ monocytes [1] [fold] | fold inhibition of monocyte migration (A041600035 VS IRR VHH), lupus nephritis, CD16- monocytes [1] [fold] | fold inhibition of monocyte migration (A041600035 VS IRR VHH), lupus nephritis, total monocytes [1] [fold] | fold difference in EC50 (cyno CX3CR1 against human CX3CR1) [2] [fold] | Binder
2.34 | 1.5 | 1.82 | 1.9 | 1.71 | 1.71 | – | A041600035 (VHH, Trivalent ISVD construct (two anti-CX3CR1 ISVDs, one anti-albumin ISVD), C-terminal alanine included in the entry; also called 54A12_SO (E1D)-9GS-54A12_SO-9GS-ALB23002-A) DVQLVESGGGSVQPGGSLRLSCAASGSIFSSTAMAWYRQAPGKQRDLVAVISTVGITKYADSVKGRFTISRDNAKNTVYLQMNSLRPEDTALYYCTSDARRGWDTRYWGQGTLVTVSSGGGGSGGGSEVQLVESGGGSVQPGGSLRLSCAASGSIFSSTAMAWYRQAPGKQRDLVAVISTVGITKYADSVKGRFTISRDNAKNTVYLQMNSLRPEDTALYYCTSDARRGWDTRYWGQGTLVTVSSGGGGSGGGSEVQLVESGGGVVQPGGSLRLSCAASGFTFRSFGMSWVRQAPGKGPEWVSSISGSGSDTLYADSVKGRFTISRDNSKNTLYLQMNSLRPEDTALYYCTIGGSLSRSSQGTLVTVSSA
– | – | – | – | – | – | 3.3 | A041600085 (VHH, also called 307-9GS-ALB23002-9GS-307 (D1E)-A) DVQLVESGGGLVQPGGSLRLSCAASGSIFSSTAMAWYRQAPGKRRDLVAAISTVGVTKYADSVKGRFTISRDNSKNTVYLQMNSLRPEDTAVYYCTSDPRRGWDTRYWGQGTLVTVSSGGGGSGGGSEVQLVESGGGVVQPGGSLRLSCAASGFTFRSFGMSWVRQAPGKGPEWVSSISGSGSDTLYADSVKGRFTISRDNSKNTLYLQMNSLRPEDTALYYCTIGGSLSRSSQGTLVTVSSGGGGSGGGSEVQLVESGGGLVQPGGSLRLSCAASGSIFSSTAMAWYRQAPGKRRDLVAAISTVGVTKYADSVKGRFTISRDNSKNTVYLQMNSLRPEDTAVYYCTSDPRRGWDTRYWGQGTLVTVSSA
